# Results reported in US20250101446A1, “METHOD FOR GENETIC TRANSFORMATION OF PLANT ORGANELLE GENOME AND USES THEREOF” (Solar Grants Biotechnology Inc., priority 2022, published 2025).
# Columns and labels:
# IA-stimulated PBMCs = assay: Counts of significant modulations over all treatments of IA-stimulated PBMCs (LPS or PHA); assay type: cell-based, human
# Protocol: The bioactivity of our plantakines IL-37b and IL-38 was assessed by monitoring the secretion of 11 cytokines, generally regarded as inflammatory markers, from PBMCs stimulated with an IA. Freshly isolated human PBMCs were subjected to various treatments-combinations of the IAs with the plantakines at different concentrations. Two different model IAs were used, either the bacterial lipopolysaccharides (LPS) or a lectin from Phaseolus vulgaris (phytohaemagglutinin, PHA); each of the IAs was applied onto cells separately, each IA was applied at two concentrations: LPS at 150 and 300 μg/mL; PHA at 5 and 10 μg/mL. Each IA at each concentration was applied in combination with one of the two plantakines, each of them at three different concentrations: 1, 10 and 100 ng/ml of the monomeric forms present in the purified extracts. Also included were treatments comprised of either IA at their lower concentrations, in combination with both plantakines at 10 ng/ml concentration in order to assess possible synergistic effects. Cells with only IAs applied represented the reference (positive controls for each concentration), cells without any treatment represented the basal level (negative control). The levels of eleven different pro-inflammatory cytokines secreted into the medium from the PBMCs-GM-SCF, IFNγ. TNFα, IL-1α, IL-1β, IL-6, IL-8, IL-22, IL12, IL-17 and IL-10 were compared between the treatments and the controls. We applied Generalized Estimating Equation (GEE) model for the statistical data analysis. This statistical approach allows for nested observations and was used to test the effects of the plantakines IL-37b and IL-38 and their dosage in the context of IA-stimulated PBMCs inflammatory responses. […]
# Non-linear logarithm transformation was performed to address non-normality of distribution of Luminex-derived numeric data. […] Separate analyses were conducted for each of the 11 monitored cytokines and each inflammatory agent/concentration combination. […]
# [1] = target: the molecule itself; assay: self-association (dimers and multimers) seen on SDS-PAGE and western blot
# Protocol: Western blots membranes were visualized using the enhanced chemiluminescence (ECL) detection kit (GE Healthcare, Cat. No. RPN2232) and imaged with the DNR Bio-Imaging System MicroChemi (RANCOM A/S, Birkerød, Denmark). Densitometry was performed using the TotalLab TL 100 software (Nonlinear Dynamics, Durham, NC).
# [2] = separate applications, either IA, all concentrations
molecule,measurement,setting,value
"plant-produced recombinant human IL-38, mature form C2-W152 with C-terminal 7xHIS tag (ligand, range 2-152; also called rhIL-38; plantakine IL-38) CSLPMARYYIIKYADQKALYTRDGQLLVGDPVADNCCAEKICILPNRGLARTKVPIFLGIQGGSRCLACVETEEGPSLQLEDVNIEELYKGGEEATRFTFFQSSSGSAFRLEAAAWPGWFLCGPAEPQQPVQLTKESEPSARTKFYFEQSWHHHHHHH","attenuated rather than increased secretion of inflammatory cytokines, frequency ratio",IA-stimulated PBMCs; all significant treatments,1.7 times
same,number of treatments in which secretion of inflammatory cytokines was increased,IA-stimulated PBMCs; [2],22 treatments
same,number of treatments in which secretion of inflammatory cytokines was suppressed,IA-stimulated PBMCs; [2],30 treatments
same,binding result,[1],binds
